# Measured values published in patent US20240254229A1 (Molecular Partners, published 2024).
# T1: biotinylated extracellular domain of human CD123 (SEQ ID NO: 88), Fc and Avi tagged (human, UniProt P26951 19-303, biotinylated with BirA-GST (Avi tag))
# T1 construct: also called hCD123
# T1 sequence: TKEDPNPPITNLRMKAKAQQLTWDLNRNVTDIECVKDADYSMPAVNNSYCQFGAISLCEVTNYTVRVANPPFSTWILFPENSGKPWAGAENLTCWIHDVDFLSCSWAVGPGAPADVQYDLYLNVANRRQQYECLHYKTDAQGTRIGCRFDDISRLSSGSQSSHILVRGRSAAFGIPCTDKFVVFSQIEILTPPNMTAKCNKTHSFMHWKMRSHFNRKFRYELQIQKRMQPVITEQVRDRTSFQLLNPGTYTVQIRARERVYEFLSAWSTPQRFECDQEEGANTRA
# T2: extracellular domain of human CD70 (SEQ ID NO: 89), hCD70-Fc-trimer, ACRO Biosystems (human, UniProt P32970 52-193, chemically biotinylated where the biotinylated form was used)
# T2 construct: also called human CD70-Fc-trimer; Bio.CD70
# T2 sequence: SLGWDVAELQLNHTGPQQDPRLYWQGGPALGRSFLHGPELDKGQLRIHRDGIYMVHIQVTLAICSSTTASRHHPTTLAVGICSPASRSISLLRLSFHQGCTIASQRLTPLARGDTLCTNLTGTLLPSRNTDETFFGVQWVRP
# Tests used:
# human serum albumin [1] = biological target: T3, human serum albumin (human, UniProt P02768 25-609); test: SPR (ProteOn XPR36), target on GLC chip
# T3 construct: also called HSA; SA
# T3 sequence (P02768 25-609 limits assumed): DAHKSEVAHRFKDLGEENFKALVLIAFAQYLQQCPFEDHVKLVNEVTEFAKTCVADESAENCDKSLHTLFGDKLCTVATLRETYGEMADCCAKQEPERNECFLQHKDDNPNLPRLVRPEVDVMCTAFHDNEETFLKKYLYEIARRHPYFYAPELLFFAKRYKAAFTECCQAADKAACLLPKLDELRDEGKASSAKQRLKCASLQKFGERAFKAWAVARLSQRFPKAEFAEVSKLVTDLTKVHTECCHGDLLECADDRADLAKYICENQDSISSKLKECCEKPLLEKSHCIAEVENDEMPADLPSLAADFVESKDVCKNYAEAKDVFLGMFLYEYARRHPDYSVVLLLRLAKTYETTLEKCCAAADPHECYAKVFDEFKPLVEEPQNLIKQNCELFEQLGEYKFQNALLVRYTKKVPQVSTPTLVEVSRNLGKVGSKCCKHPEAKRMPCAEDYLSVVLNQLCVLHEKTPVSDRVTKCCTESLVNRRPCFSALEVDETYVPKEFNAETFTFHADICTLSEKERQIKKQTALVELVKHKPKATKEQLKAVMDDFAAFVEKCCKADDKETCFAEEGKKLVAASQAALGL
# Text: (§1) For that, DARPin® protein #27, DARPin® protein #29, DARPin® protein #47 and DARPin® protein #48 and DARPin® protein #49, DARPin® protein #50, DARPin® protein #51, DARPin® protein #52, DARPin® protein #31, DARPin® protein #53, DARPin® protein #54, DARPin® protein #55, DARPin® protein #34, DARPin® protein #33, DARPin® protein #39 and DARPin® protein #36 were subcloned and expressed as described above into derivatives of the pQE30 (Qiagen) expression vector, containing an N-terminal His-tag, CD33, CD123 and/or CD70 binding ankyrin repeat domains, followed by a CD3 specific ankyrin repeat domain and for some constructs by a human serum albumin specific ankyrin repeat domain.
# (§2) Briefly, biotinylated human CD70, CD123 and CD33 was diluted in PBST (PBS, pH 7.4 containing 0.005% Tween 20®) and coated on a GLC chip (BioRad) to a level of around 200, 460 and 450 resonance units (RU) respectively. HSA in NaOAc pH 5.0 was directly immobilized on the GLC chip to a level of 800 RU. Bio.CD70, bio. CD33 and bio. CD123 required to have Neutravidin coated first to a level of 6000 RU before the biotinylated targets could be applied. The interaction of the selected ankyrin repeat proteins and human CD70, CD123 and CD33 was then measured by injecting 300 μl running buffer (PBS, pH 7.4 containing 0.005% Tween 20®) containing serial dilutions of ankyrin repeat proteins covering a concentration range between 100 nM and 2.6 nM (100, 40, 16, 6.4 and 2.6 nM respectively) for multi-trace SPR measurements, with an association of 120 s and dissociation of 1200 s using a constant flow of 100 μl/min. The regeneration was performed using 30 μl of 4 mM Glycine pH 2. The signals (i.e. resonance unit (RU) values) of the interspots and a reference injection (i.e. injection of running buffer only) were subtracted from the RU traces obtained after injection of ankyrin repeat protein (double-referencing).
# [2] = biological target: T4, biotinylated extracellular domain of human CD33 (SEQ ID NO: 87), Fc and Avi tagged (human, UniProt P20138 18-259, biotinylated with BirA-GST (Avi tag)); test: SPR (ProteOn XPR36), target on GLC chip, DARPin as analyte
# T4 construct: also called hCD33; human target hCD33
# T4 sequence (P20138 18-259 R69G): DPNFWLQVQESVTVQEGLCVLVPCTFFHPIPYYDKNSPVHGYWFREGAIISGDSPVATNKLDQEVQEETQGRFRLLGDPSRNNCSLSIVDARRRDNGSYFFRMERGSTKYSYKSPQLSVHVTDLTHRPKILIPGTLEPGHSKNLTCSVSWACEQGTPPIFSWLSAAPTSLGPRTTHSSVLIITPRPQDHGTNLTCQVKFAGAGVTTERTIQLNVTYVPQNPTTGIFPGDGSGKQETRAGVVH
# Text: as §1, §2
# [3] = biological target: T1, biotinylated extracellular domain of …; test: as above
# Text: as §1, §2
# [4] = biological target: T2, extracellular domain of human CD70 (SEQ …); test: as above
# Text: as §1, §2
# [5] = biological target: T1, biotinylated extracellular domain of …; test: SPR (ProteOn XPR36), target on GLC chip
# Text: as §1, §2
# [6] = biological target: T2, extracellular domain of human CD70 (SEQ …); test: SPR (ProteOn XPR36), target on GLC chip
# Text: as §1, §2
# human serum albumin [7] = biological target: T3, human serum albumin; test: SPR (ProteOn XPR36), target on GLC chip, DARPin as analyte
# Text: as §1, §2
Binder,binding result (human serum albumin [1]),Kd [2] [nM],Kd [3] [nM],Kd [4] [nM],binding result [5],binding result [6],Kd (human serum albumin [7]) [nM]
"DARPin® protein #31 (designed binder, CD70-CD123-CD33-CD3; not shown: N-terminal His-tag) DLGYKLLQAAYDGQLDEVRILLKAGADVNAKDSRGQTPLHYAASIGHLEIVEVLLKAGADVNAKDDHGWTPLHLAAWSGHLEIVEVLLKAGADVNAQDQEGTTPADLAAVQGHQDIAEVLQKAAGSPTPTPTTPTPTPTTPTPTPTGSDLGKKLLEAALEGQLDEVRELLKAGADVNAKDQEGYTPLHLAAALGHLEIVEVLLKAGADVNAKDSIGRTPLHLAAYKGHLEIVEVLLKAGADVNAQDLLGETPADLAAEQGHQDIAEVLQKAAGSPTPTPTTPTPTPTTPTPTPTGSDLGVKLLRAAVHGQLDEVRILLKAGADVNAKDTDGETPLHYAAQFGHLEIVEVLLKAGADVNAKDAYGATPLHWAAWHGHLEIVEVLLKAGADVNAQDVSGATPADLAAKVGHQDIAEVLQKAAGSPTPTPTTPTPTPTTPTPTPTGSDLGQKLLEAAWAGQDDEVRELLKAGADVNAKNSRGWTPLHTAAQTGHLEIFEVLLKAGADVNAKDDKGVTPLHLAAALGHLEIVEVLLKAGADVNAQDSWGTTPADLAAKYGHEDIAEVLQKAA",no binding (tested: 100 nM (highest concentration)),11,10,0.31,,,
"DARPin® protein #36 (designed binder, CD33-specific ankyrin repeat domain; not shown: N-terminal His-tag) DLGVKLLLAASRGQLDEVRILLKAGADVNAKDIDEGYTPLHIAAYYGHLEIVEVLLKAGADVNAKDRYGKTPLHLAAISGHLEIVEVLLKAGADVNAQDDKGDTPADLAADYGHQDIAEVLQKAA",no binding (tested: 100 nM (highest concentration)),6.7,,,no binding (tested: 100 nM (highest concentration)),no binding (tested: 100 nM (highest concentration)),
"DARPin® protein #52 (designed binder, not shown: N-terminal His-tag) DLGYKLLQAAYDGQLDEVRILLKAGADVNAKDSRGQTPLHYAASIGHLEIVEVLLKAGADVNAKDDHGWTPLHLAAWSGHLEIVEVLLKAGADVNAQDQEGTTPADLAAVQGHQDIAEVLQKAAGSPTPTPTTPTPTPTTPTPTPTGSDLGVKLLLAASRGQLDEVRILLKAGADVNAKDIDEGYTPLHIAAYYGHLEIVEVLLKAGADVNAKDRYGKTPLHLAAISGHLEIVEVLLKAGADVNAQDDKGDTPADLAADYGHQDIAEVLQKAAGSPTPTPTTPTPTPTTPTPTPTGSDLGQKLLEAAWAGQDDEVRELLKAGADVNAKNSRGWTPLHTAAQTGHLEIFEVLLKAGADVNAKDDKGVTPLHLAAALGHLEIVEVLLKAGADVNAQDSWGTTPADLAAKYGHEDIAEVLQKAAGSPTPTPTTPTPTPTTPTPTPTGSDLGKKLLEAARAGQDDEVRELLKAGADVNAKDYFSHTPLHLAARNGHLKIVEVLLKAGADVNAKDFAGKTPLHLAAADGHLEIVEVLLKAGADVNAQDIFGKTPADIAADAGHEDIAEVLQKAA",,5.7,,0.27,no binding (tested: 100 nM (highest concentration)),,48
"DARPin® protein #48 (designed binder, HSA-HSA-CD123-CD33-CD3; not shown: N-terminal His-tag) DLGKKLLEAARAGQDDEVRELLKAGADVNAKDYFSHTPLHLAARNGHLKIVEVLLKAGADVNAKDFAGKTPLHLAAADGHLEIVEVLLKAGADVNAQDIFGKTPADIAADAGHEDIAEVLQKAAGSPTPTPTTPTPTPTTPTPTPTGSDLGKKLLEAARAGQDDEVRELLKAGADVNAKDYFSHTPLHLAARNGHLKIVEVLLKAGADVNAKDFAGKTPLHLAAADGHLEIVEVLLKAGADVNAQDIFGKTPADIAADAGHEDIAEVLQKAAGSPTPTPTTPTPTPTTPTPTPTGSDLGKKLLEAALEGQLDEVRELLKAGADVNAKDQEGYTPLHLAAALGHLEIVEVLLKAGADVNAKDSIGRTPLHLAAYKGHLEIVEVLLKAGADVNAQDLLGETPADLAAEQGHQDIAEVLQKAAGSPTPTPTTPTPTPTTPTPTPTGSDLGVKLLLAASRGQLDEVRILLKAGADVNAKDIDEGYTPLHIAAYYGHLEIVEVLLKAGADVNAKDRYGKTPLHLAAISGHLEIVEVLLKAGADVNAQDDKGDTPADLAADYGHQDIAEVLQKAAGSPTPTPTTPTPTPTTPTPTPTGSDLGQKLLEAAWAGQDDEVRELLKAGADVNAKNSRGWTPLHTAAQTGHLEIFEVLLKAGADVNAKDDKGVTPLHLAAALGHLEIVEVLLKAGADVNAQDSWGTTPADLAAKYGHEDIAEVLQKAA",,4.2,5.1,,,no binding (tested: 100 nM (highest concentration)),1.1
"DARPin® protein #49 (designed binder, CD123-CD33-CD3-HSA; not shown: N-terminal His-tag) DLGKKLLEAALEGQLDEVRELLKAGADVNAKDQEGYTPLHLAAALGHLEIVEVLLKAGADVNAKDSIGRTPLHLAAYKGHLEIVEVLLKAGADVNAQDLLGETPADLAAEQGHQDIAEVLQKAAGSPTPTPTTPTPTPTTPTPTPTGSDLGVKLLLAASRGQLDEVRILLKAGADVNAKDIDEGYTPLHIAAYYGHLEIVEVLLKAGADVNAKDRYGKTPLHLAAISGHLEIVEVLLKAGADVNAQDDKGDTPADLAADYGHQDIAEVLQKAAGSPTPTPTTPTPTPTTPTPTPTGSDLGQKLLEAAWAGQDDEVRELLKAGADVNAKNSRGWTPLHTAAQTGHLEIFEVLLKAGADVNAKDDKGVTPLHLAAALGHLEIVEVLLKAGADVNAQDSWGTTPADLAAKYGHEDIAEVLQKAAGSPTPTPTTPTPTPTTPTPTPTGSDLGKKLLEAARAGQDDEVRELLKAGADVNAKDYFSHTPLHLAARNGHLKIVEVLLKAGADVNAKDFAGKTPLHLAAADGHLEIVEVLLKAGADVNAQDIFGKTPADIAADAGHEDIAEVLQKAA",,6.8,23,,,no binding (tested: 100 nM (highest concentration)),14
"DARPin® protein #47 (designed binder, HSA-CD123-CD33-CD3; not shown: N-terminal His-tag) DLGKKLLEAARAGQDDEVRELLKAGADVNAKDYFSHTPLHLAARNGHLKIVEVLLKAGADVNAKDFAGKTPLHLAAADGHLEIVEVLLKAGADVNAQDIFGKTPADIAADAGHEDIAEVLQKAAGSPTPTPTTPTPTPTTPTPTPTGSDLGKKLLEAALEGQLDEVRELLKAGADVNAKDQEGYTPLHLAAALGHLEIVEVLLKAGADVNAKDSIGRTPLHLAAYKGHLEIVEVLLKAGADVNAQDLLGETPADLAAEQGHQDIAEVLQKAAGSPTPTPTTPTPTPTTPTPTPTGSDLGVKLLLAASRGQLDEVRILLKAGADVNAKDIDEGYTPLHIAAYYGHLEIVEVLLKAGADVNAKDRYGKTPLHLAAISGHLEIVEVLLKAGADVNAQDDKGDTPADLAADYGHQDIAEVLQKAAGSPTPTPTTPTPTPTTPTPTPTGSDLGQKLLEAAWAGQDDEVRELLKAGADVNAKNSRGWTPLHTAAQTGHLEIFEVLLKAGADVNAKDDKGVTPLHLAAALGHLEIVEVLLKAGADVNAQDSWGTTPADLAAKYGHEDIAEVLQKAA",,5.4,8,,,no binding (tested: 100 nM (highest concentration)),15
"DARPin® protein #39 (designed binder, CD33-specific ankyrin repeat domain; not shown: N-terminal His-tag) DLGVKLLRAAVHGQLDEVRILLKAGADVNAKDTDGETPLHYAAQFGHLEIVEVLLKAGADVNAKDAYGATPLHWAAWHGHLEIVEVLLKAGADVNAQDVSGATPADLAAKVGHQDIAEVLQKAA",no binding (tested: 100 nM (highest concentration)),24,,,no binding (tested: 100 nM (highest concentration)),no binding (tested: 100 nM (highest concentration)),
